Results from patent publication US20250042956A1 (University of California, published 2025).

T1: PIAL2 (yeast two hybrid GAL4 fusion) (Arabidopsis thaliana, UniProt F4JYG0 1-760)
T1 construct: cDNA cloned into Gateway Y2H vectors; not shown: GAL4-AD or GAL4-BD (pGADT7-GW / pGBKT7-GW)
T1 sequence: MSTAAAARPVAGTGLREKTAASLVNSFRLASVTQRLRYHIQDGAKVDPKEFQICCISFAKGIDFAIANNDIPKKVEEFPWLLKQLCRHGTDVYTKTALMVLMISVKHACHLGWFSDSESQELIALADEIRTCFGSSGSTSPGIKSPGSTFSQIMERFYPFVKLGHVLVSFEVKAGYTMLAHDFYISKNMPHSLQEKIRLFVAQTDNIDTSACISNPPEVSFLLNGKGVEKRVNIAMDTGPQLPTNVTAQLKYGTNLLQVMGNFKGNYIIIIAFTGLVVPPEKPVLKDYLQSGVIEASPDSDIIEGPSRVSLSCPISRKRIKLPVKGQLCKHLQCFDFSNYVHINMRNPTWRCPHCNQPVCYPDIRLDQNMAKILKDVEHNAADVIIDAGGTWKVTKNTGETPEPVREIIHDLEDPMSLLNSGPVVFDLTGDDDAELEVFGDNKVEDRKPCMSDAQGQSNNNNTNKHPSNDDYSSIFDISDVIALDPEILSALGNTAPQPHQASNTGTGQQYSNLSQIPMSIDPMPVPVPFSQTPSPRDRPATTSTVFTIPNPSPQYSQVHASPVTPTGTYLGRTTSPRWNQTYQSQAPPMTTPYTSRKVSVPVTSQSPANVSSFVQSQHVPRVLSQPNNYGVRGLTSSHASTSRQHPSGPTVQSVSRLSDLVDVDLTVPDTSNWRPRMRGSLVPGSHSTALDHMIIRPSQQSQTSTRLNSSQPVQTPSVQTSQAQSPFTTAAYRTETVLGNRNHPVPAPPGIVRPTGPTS

T2: AT2G17540.2 TRBIP2 (Arabidopsis thaliana)
T2 construct: Endogenous protein found by mass spectrometry
T2 chain: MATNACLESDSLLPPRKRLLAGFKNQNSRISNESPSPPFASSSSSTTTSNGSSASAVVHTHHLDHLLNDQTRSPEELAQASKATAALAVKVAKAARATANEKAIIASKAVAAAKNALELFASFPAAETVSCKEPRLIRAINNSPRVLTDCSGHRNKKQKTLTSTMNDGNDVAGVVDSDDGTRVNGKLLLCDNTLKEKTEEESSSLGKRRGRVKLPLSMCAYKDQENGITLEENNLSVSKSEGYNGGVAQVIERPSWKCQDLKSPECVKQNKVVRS

T3: AT4G35510.1 TRBIP1 (Arabidopsis thaliana)
T3 construct: Endogenous protein found by mass spectrometry
T3 chain: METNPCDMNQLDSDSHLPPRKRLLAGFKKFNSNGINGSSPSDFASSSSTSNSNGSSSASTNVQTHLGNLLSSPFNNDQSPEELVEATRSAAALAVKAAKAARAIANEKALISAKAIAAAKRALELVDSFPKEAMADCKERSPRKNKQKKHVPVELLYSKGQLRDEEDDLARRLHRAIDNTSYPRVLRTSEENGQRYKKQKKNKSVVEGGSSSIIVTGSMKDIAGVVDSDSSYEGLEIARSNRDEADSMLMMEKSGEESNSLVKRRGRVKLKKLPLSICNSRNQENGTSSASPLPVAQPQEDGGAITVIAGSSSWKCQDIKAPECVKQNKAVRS


Tests used:
[1] = target: T1, PIAL2 (yeast two hybrid GAL4 fusion); assay: yeast two hybrid
Description: The cDNA sequences of PIAL1, PIAL2, MOM2, MORC6, and MOM1 CMM2 domain (aa1660-aa1860, (see e.g., Han, Plant Cell Rep., 2016)) were first cloned into gateway entry vectors followed by LR reaction with pGBKT7-GW (Addgene 61703) and pGADT7-GW (Addgene 61702) destination vectors. Pairs of plasmid DNA for the desired protein interaction to be tested were co-transformed into the yeast strain AH109. Combinations of the empty pGBKT7-GW or pGADT7-GW vectors and the plasmids of desired proteins were used for transformation of yeast cells to test for self-activation. Transformed yeast cells were plated on synthetic dropout medium without Trp and Leu (SD-TL) and incubated for 2-3 days to allow for the growth of positive colonies carrying both plasmids. Three yeast colonies of each tested protein interaction pairs were picked and mixed in 150 μl 1×TE solution, and 3 μl of the 1×TE solution with the yeast cells were blotted on synthetic dropout medium without Trp, Leu, and His (SD-TLH) and with 5 mM 3-amino-1,2,4-triazole (3AT) to inhibit background growth. Growth of yeast on SD-TLH with 5 mM 3AT medium after 2-3 days of incubation indicates the interaction between the GAL4-AD fusion protein and the GAL4-BD fusion protein.

[2] = target: T2, AT2G17540.2 TRBIP2; assay: IP-MS rep 2
Experimental: (§1) The method of IP-MS used in this Example has been described in a recent paper (see e.g., Xue, Nat. Comm., 2021). Ten grams of unopened floral buds from Col-0 wild type and FLAG-tag transgenic plants, including PHD1, MOM1, AIPP3, MOM2, MORC6, PIAL2, TRB1, TRB2, TRB3, JMJ14, HD2A, HD2B, and ELF7 were collected and ground into fine powder with liquid nitrogen. These samples were resuspended with 25 mL IP buffer and homogenized until lump-free by dounce homogenizer. The lysate was filtered through Miracloth and incubated with 250 μL anti-FLAG M2 magnetic beads (Sigma) at 4° C. for 2 hours. The magnetic beads were washed with IP buffer and eluted with TBS containing 250 μg/mL 3×FLAG peptides. The eluted proteins were precipitated with trichloroacetic acid (Sigma) and subject to MS analyses as described previously (see e.g., Xue, Nat. Comm., 2021).

[3] = target: T3, AT4G35510.1 TRBIP1; assay: IP-MS rep 2
Experimental: as §1

[4] = target: T2, AT2G17540.2 TRBIP2; assay: X-link IP-MS
[5] = target: T3, AT4G35510.1 TRBIP1; assay: X-link IP-MS
[6] = target: T2, AT2G17540.2 TRBIP2; assay: IP-MS rep 1
Experimental: as §1

[7] = target: T3, AT4G35510.1 TRBIP1; assay: IP-MS rep 1
Experimental: as §1

binding result [1] | IP-MS count [2] | IP-MS count [3] | IP-MS count [4] | IP-MS count [5] | IP-MS count [6] | IP-MS count [7] | Binder
binds | – | – | – | – | – | – | MORC6 (yeast two hybrid GAL4 fusion) (other, Arabidopsis thaliana, UniProt Q56Y74 1-663, looked up, cDNA cloned into Gateway Y2H vectors; not shown: GAL4-AD or GAL4-BD (pGADT7-GW / pGBKT7-GW)) MSHDRSVNVSHDAVIAKPERGTMLQSFSPRSHGSKGYSLPQDSEENRGSVGQSAGQSSTSVVDQVRSPADDAGVTSSSTICPAPVCRQFWKAGSYNDELSSKSQQPNGKNYLHVHPMFLHSNATSHKWAFGAVAELLDNAVDEIQNGATFVIVDKTTNPRDGATALLIQDDGGGMDPQAMRHCMGFGFSDKKSDSAIGRYGNGFKTSTMRLGADVIVFSRHSKNQTLTQSIGLLSYTYLTRTGHDRIVVPILDYEFNASAGEFKTLQDREHFISSLSILLEWSPFSTEAELLQQFDDVGPHGTKVIIYNMWLNSDAKLELDFDSVAEDILIEGSIKKTGSKIVNDHIASRFSYSLRVYLSILYLRIPETFKIILRGKVVEHHNVADDLMHPQYILYKPQAAGSEEALVVTTIGFLKEAPKVNLHGFCVYHKNRLIMPFWQVINYSSSRGRGVVGVLEANFVEPTHNKQDFEKTVLLQKLENRLKEMTVEYWSCHCVLIGYQVNKKPRLQIPQKVQPAGRQALSPPPGFQAVFPQGNTTSLPRVSTQPVLLEKRKEHPDSVASAALKRKVGNDDFTVPGHIRVEQFIHGSASQSQDIETVKLMEENKKLRAKCLDRKVRSQNLEVKAMNLRSELENYKSEYERLMVELQALDLVKDEHRRNVNT
binds | – | – | – | – | – | – | MOM1 CMM2 domain (yeast two hybrid GAL4 fusion) (other, Arabidopsis thaliana, UniProt Q9M658 1660-1860, looked up, range 1660-1860; also called MOM1 CMM2 domain (aa1660-aa1860); not shown: GAL4-AD or GAL4-BD (pGADT7-GW / pGBKT7-GW)) TSVAEPHISGSDACEMEISEPGPQVERSTFANLFHEGGVEHSAGVTALVPSLLNNGTEQIAVQPVPQIPFPVFNDPFLHELEKLRRESENSKKTFEEKKSILKAELERKMAEVQAEFRRKFHEVEAEHNTRTTKIEKDKNLVIMNKLLANAFLSKCTDKKVSPSGAPRGKIQQLAQRAAQVSALRNYIAPQQLQASSFPAP
– | 20 | 38 | 3 | 17 | 16 | 24 | FLAG-TRB3 (other, not shown: small tags and cut ends, FLAG-tagged TRB3 from its native promoter; tag position under the label FLAG-TRB3 not certain; also called TRB3-FLAG; TRB-FLAG) MGAPKLKWTPEEETALKAGVLKHGTGKWRTILSDPVYSTILKSRSNVDLKDKWRNISVTALWGSRKKAKLALKRTPLSGSRQDDNATAITIVSLANGDVGGQQIDAPSPPAGSCEPPRPSTSVDKIILEAITSLKRPFGPDGKSILMYIEENFKMQPDMKRLVTSRLKYLTNVGTLVKKKHKYRISQNYMAEGEGQRSPQLLLEGNKENTPKPEENGVKNLTKSQVGGEVMIMGMTEKEAAAAAARAVAEAEFAMAEAEEAAREADKAEAEAEAAHIFAKAAMKAVKYRMHSQTR
